{"source": "patent US20210253692A1", "about": "(GALAPAGOS, published 2021)", "proteins": {"B1": {"name": "MAB#1 (antibody, human IgG1, lambda, V domains shown)", "VH": "EVQLLESGGGLVQPGGSLRLSCAASGFTVSDYAMHWVRQAPGKGLEWVSYIGGVGEGTQYAESVKGRFTISRDNSKNTLYLQMNSLRAEDTAVYYCARGFAIRYYGFDYWGQGTLVTVSS", "VL": "SYELTQPPSVSVSPGQTASITCSGDKLGDKYAYWYQQKPGQSPVLVIYQDSKRPSGIPERFSGSNSGNTATLTISGTQAEDEADYYCQVFTFPLVTTVFGGGTKLTVLG", "notes": "also called IL-17C antibody; anti-IL-17C antibody"}}, "molecular_target": "the molecule itself", "experiment": "dynamic light scattering in phosphate buffered saline; self-interaction of the antibody", "data": [{"protein": "B1", "values": [{"measurement": "kD (diffusion interaction parameter)", "value": -23.6, "unit": "mL/g"}]}]}
